± gives the uncertainty stated by the source.
B1: library; numbered along this chain (parent)
chain: MEVVDPQQLGMFTEGELMSVGMDTFIHRIDSTEVIYQPRRKRAKLIGKYLMGDLLGEGSYGKVKEVLDSETLCRRAVKILKKKKLRRIPNGEANVKKEIQLLRRLRHKNVIQLVDVLYNEEKQKMYMVMEYCVCGMQEMLDSVPEKRFPVCQAHGYFCQLIDGLEYLHSQGIVHKDIKPGNLLLTTGGTLKISDLGVAEALHPFAADDTCRTSQGSPAFQPPEIANGLDTFSGFKVDIWSAGVTLYNITTGLYPFEGDNIYKLFENIGKGSYAIPGDCGPPLSDLLKGMLEYEPAKRFSIRQIRQHSWFRKKHPPAEAPVPIPPSPDTKDRWRSMTVVPYLEDLHGADEDEDLFDIEDDIIYTQDFTVPGQVPEEEASHNGQRRGLPKAVCMNGTEAAQLSTKSRAEGRAPNPARKACSASSKIRRLSACKQQ

Variants of: B1
Test: STK11 functional score (HeLa growth suppression), rescaled enrichment; synonymous median = 1, nonsense median = 0 (normalised score)
Settings: with HeLa; variant type: missense
Method: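 Deep mutational scan (TileSeq/POPCode codon randomisation) of full-length codon-optimised STK11 cDNA integrated at a Bxb1 landing pad (AAVS1) in HeLa cells. Restoring functional STK11 suppresses HeLa proliferation. Variant frequencies were measured by NGS before and after about two weeks of growth. The error-corrected enrichment log-ratio was rescaled so that synonymous median = 1 and nonsense median = 0, scores above 1 were compressed, and codon-level and three biological replicate scores were combined; error is the bootstrapped standard error. Scale: synonymous median = 1, nonsense median = 0; below 0.5 = damaging.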

Variant	STK11 functional score
G56W	-0.159 ± 0.14
V150H	1.26 ± 0.38
G370Q	1.55 ± 0.18
D365S	1.51 ± 0.26
S378N	1.56 ± 0.47
L252W	1.42 ± 0.17
P179E	0.0456 ± 0.13
P222F	0.44 ± 0.099
E407G	0.689 ± 0.64
H379G	1.11 ± 0.57
I46M	0.908 ± 0.76
I99E	1.65 ± 0.16
L341R	1.21 ± 0.14
Y60C	0.482 ± 0.081
T249M	1.47 ± 0.2
S31H	-0.108 ± 0.4
L282M	0.225 ± 0.27
A241S	0.863 ± 0.15
L55F	-0.181 ± 0.15
K403Y	1.59 ± 0.21
L184I	0.978 ± 0.22
E376H	0.914 ± 0.14
K416F	0.683 ± 0.49
E130G	0.45 ± 0.39

Variant	STK11 functional score
A93H	1.66 ± 0.18
E396C	1.26 ± 0.42
S283T	1.47 ± 0.17
H168G	0.533 ± 0.13
P149Y	-0.0036 ± 0.19
K431F	1.59 ± 0.28
L341A	1.51 ± 0.15
F25C	1.63 ± 0.46
G52C	1.49 ± 0.16
A200S	0.652 ± 0.15
G163W	0.91 ± 0.22
R405T	1.24 ± 0.43
Q159D	1.12 ± 0.46
T328R	1.5 ± 0.25
E57G	1.08 ± 0.35
H345R	1.58 ± 0.15
E357S	1.52 ± 0.15
T328N	0.554 ± 0.47
V390F	1.18 ± 0.4
M18Q	1.28 ± 0.12
G10I	1.64 ± 0.13
I29L	1 ± 0.15
D176I	-0.156 ± 0.11
T395I	0.971 ± 0.23

Variant	STK11 functional score
W308A	0.0826 ± 0.26
L245P	-0.14 ± 0.1
R310S	1.54 ± 0.22
E293N	1.55 ± 0.23
S307T	1.22 ± 0.52
K191W	0.459 ± 0.11
R310T	0.923 ± 0.65
L72Q	1.26 ± 0.14
N247V	0.824 ± 0.1
H107V	0.138 ± 0.077
K96P	0.38 ± 0.12
L286S	0.0276 ± 0.19
T32Y	0.666 ± 0.85
G163H	-0.383 ± 0.17
T185V	0.913 ± 0.25
L55R	1.21 ± 0.11
N259T	1.32 ± 0.51
V66H	1.37 ± 0.19
S142K	1.52 ± 0.34
S142E	1.55 ± 0.18
Q364T	1.46 ± 0.14
I274M	0.974 ± 0.14
Q112S	1.1 ± 0.35
S325T	1.17 ± 0.36

Variant	STK11 functional score
K388I	0.996 ± 0.29
K178R	0.681 ± 0.13
G188R	1.19 ± 0.56
T24H	1.7 ± 0.17
E121R	1.31 ± 0.17
D350T	1.47 ± 0.14
K78T	0.086 ± 0.54
I79G	0.345 ± 0.22
V390D	1.4 ± 0.28
C73Y	0.412 ± 0.097
A417V	0.845 ± 0.15
V243A	0.996 ± 0.097
Q433R	0.937 ± 0.57
G233L	1.57 ± 0.32
T209S	0.82 ± 0.11
E33D	1.09 ± 0.39
P144D	1.46 ± 0.29
A225G	1.05 ± 0.26
R106A	1.45 ± 0.18
D229K	0.652 ± 0.23
E92T	1.62 ± 0.18
R40M	1.28 ± 0.43
F234S	1.1 ± 0.2
E92I	-0.0755 ± 0.16

Variant	STK11 functional score
F309V	0.0641 ± 0.1
H345D	1.27 ± 0.37
K403C	0.656 ± 0.13
L45V	0.939 ± 0.17
G257A	1.25 ± 0.6
D365E	0.893 ± 0.49
K329D	1.56 ± 0.27
E145P	1.36 ± 0.4
P294R	0.705 ± 0.19
P6T	0.874 ± 0.12
D343P	1.33 ± 0.15
F255P	0.517 ± 0.11
R415W	1.5 ± 0.18
D350W	1.6 ± 0.19
F354H	1.34 ± 0.28
R384Y	1.53 ± 0.12
T363W	1.19 ± 0.16
Q152E	0.844 ± 0.51
C134I	1.42 ± 0.084
I172L	0.71 ± 0.11
Q364D	0.845 ± 0.44
I79R	0.967 ± 0.28
T189N	0.455 ± 0.53
L113H	0.781 ± 0.24

Variant	STK11 functional score
V3F	0.991 ± 0.32
I79P	0.0986 ± 0.19
I46H	1.58 ± 0.33
I267H	1.45 ± 0.35
E14A	0.905 ± 0.29
I267T	1.11 ± 0.46
S422A	1.5 ± 0.26
P387D	1.56 ± 0.24
P281R	0.969 ± 0.13
D176S	-0.0857 ± 0.087
F298D	1.48 ± 0.12
Q137T	1.6 ± 0.28
V368D	1.53 ± 0.14
D277M	0.115 ± 0.11
D207N	0.668 ± 0.74
Q123P	0.451 ± 0.33
I161S	-0.0934 ± 0.18
V173W	0.343 ± 0.097
A347L	1.46 ± 0.16
Q7V	1.37 ± 0.27
Y362W	1.31 ± 0.22
P294H	0.973 ± 0.64
R42K	1.26 ± 0.84
V116W	0.541 ± 0.079

Variant	STK11 functional score
Y49H	1.11 ± 0.48
P314D	1.5 ± 0.17
P149D	0.598 ± 0.17
D176W	-0.0742 ± 0.054
C278H	1.06 ± 0.35
I360V	1.49 ± 0.28
G276S	1.42 ± 0.27
K64Q	1.58 ± 0.26
Y118V	0.988 ± 0.11
L252S	1.5 ± 0.22
I248F	0.497 ± 0.092
T212G	1.3 ± 0.42
L54K	1.61 ± 0.23
I274F	1.13 ± 0.43
D343E	1.45 ± 0.56
A429E	1.55 ± 0.19
R405N	1.33 ± 0.36
S169R	0.882 ± 0.35
Y126A	1.21 ± 0.25
S283G	1.19 ± 0.11
A241G	0.802 ± 0.13
E357L	1.54 ± 0.31
Q220K	0.583 ± 0.28
